In paper PMC2063550:

Tests used:
[1] = target: GST-PERK, wild-type PERK kinase domain fused to GST (active, autophosphorylated) (mouse) (UniProt Q9Z2B5); assay: pull-down
[2] = target: GST-PERK, wild-type PERK kinase domain fused to GST (active, autophosphorylated) (mouse) (UniProt Q9Z2B5)

UniProt Q9Z2B5, sequence (Q9Z2B5 537-1114): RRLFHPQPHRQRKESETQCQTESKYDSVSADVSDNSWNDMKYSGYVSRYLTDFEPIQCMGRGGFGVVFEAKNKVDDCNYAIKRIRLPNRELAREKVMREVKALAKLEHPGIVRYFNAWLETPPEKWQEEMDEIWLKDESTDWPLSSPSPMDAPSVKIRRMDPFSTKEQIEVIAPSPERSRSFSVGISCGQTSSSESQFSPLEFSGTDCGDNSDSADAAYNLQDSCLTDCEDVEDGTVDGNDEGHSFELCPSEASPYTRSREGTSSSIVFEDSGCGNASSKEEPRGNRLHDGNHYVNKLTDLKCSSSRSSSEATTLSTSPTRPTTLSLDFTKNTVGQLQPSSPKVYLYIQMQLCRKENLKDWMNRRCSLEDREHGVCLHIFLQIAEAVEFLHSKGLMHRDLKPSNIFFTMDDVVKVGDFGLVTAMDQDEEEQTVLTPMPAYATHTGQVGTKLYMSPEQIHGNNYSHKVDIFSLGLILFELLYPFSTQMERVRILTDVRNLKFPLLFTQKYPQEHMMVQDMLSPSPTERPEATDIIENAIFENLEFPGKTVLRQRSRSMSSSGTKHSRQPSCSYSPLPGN

Substance	KCl concentration at the peak of elution [1] [mM KCl]	stoichiometry N (eIF2α-NTD per PERK) [2]
eIF2α-NTD (NH2-terminal domain of eIF2α, residues 1-185, three solubilizing mutations, nonphosphorylated) (domain or fragment)	225	> 1
phosphorylated eIF2α-NTD (P–eIF2α-NTD, phosphorylated by PERK on serine 51) (domain or fragment)	125	–
